Laboratory results taken from publication PMC8983318, “Deciphering the structure of Arabidopsis thaliana 5-enol-pyruvyl-shikimate-3-phosphate synthase: An essential step toward the discovery of novel inhibitors to supersede glyphosate” (Computational and Structural Biotechnology Journal, 2022).

Assays:
[1] = target: T1, 5-enol-pyruvyl-shikimate-3-phosphate synthase (AtEPSPS) (Arabidopsis thaliana, UniProt P05466); assay: malachite green phosphate-release assay, Lineweaver-Burk analysis (Ki vs PEP about […]; Ki vs S3P about […]; IC50 about […]); format: biochemical
T1 construct: gene At2g45300; residues 77-520 (starts from Lys77, preceded by Ser-Asn-Ala)
T1 sequence (P05466 77-520): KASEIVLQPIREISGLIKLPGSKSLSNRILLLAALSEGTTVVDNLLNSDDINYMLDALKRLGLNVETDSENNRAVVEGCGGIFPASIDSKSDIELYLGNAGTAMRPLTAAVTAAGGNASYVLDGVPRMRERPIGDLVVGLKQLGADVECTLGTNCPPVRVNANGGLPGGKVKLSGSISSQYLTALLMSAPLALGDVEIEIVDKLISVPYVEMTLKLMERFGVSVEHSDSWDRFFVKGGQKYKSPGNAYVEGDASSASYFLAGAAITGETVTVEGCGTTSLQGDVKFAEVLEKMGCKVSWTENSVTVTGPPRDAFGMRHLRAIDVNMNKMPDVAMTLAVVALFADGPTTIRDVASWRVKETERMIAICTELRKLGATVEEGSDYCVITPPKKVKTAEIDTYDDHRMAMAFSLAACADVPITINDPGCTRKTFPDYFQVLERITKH

purified protein = substrate: C=C(OP(=O)(O)O)C(=O)O; assay: purified protein; settings: glyphosate is competitive with respect to PEP
[2] = substrate: O=C(O)C1=C[C@@H](OP(=O)(O)O)[C@@H](O)[C@H](O)C1; assay: steady-state kinetics of the purified enzyme, KM(app), malachite green assay; format: biochemical, Arabidopsis thaliana

O=C(O)CNCP(=O)(O)O [glyphosate, N-[phosphonomethyl]glycine]
Ki [1]: ~1000 nM

B1: 5-enol-pyruvyl-shikimate-3-phosphate synthase (AtEPSPS) (Arabidopsis thaliana) (protein)
chain: KASEIVLQPIREISGLIKLPGSKSLSNRILLLAALSEGTTVVDNLLNSDDINYMLDALKRLGLNVETDSENNRAVVEGCGGIFPASIDSKSDIELYLGNAGTAMRPLTAAVTAAGGNASYVLDGVPRMRERPIGDLVVGLKQLGADVECTLGTNCPPVRVNANGGLPGGKVKLSGSISSQYLTALLMSAPLALGDVEIEIVDKLISVPYVEMTLKLMERFGVSVEHSDSWDRFFVKGGQKYKSPGNAYVEGDASSASYFLAGAAITGETVTVEGCGTTSLQGDVKFAEVLEKMGCKVSWTENSVTVTGPPRDAFGMRHLRAIDVNMNKMPDVAMTLAVVALFADGPTTIRDVASWRVKETERMIAICTELRKLGATVEEGSDYCVITPPKKVKTAEIDTYDDHRMAMAFSLAACADVPITINDPGCTRKTFPDYFQVLERITKH
notes: residues 77-520 (starts from Lys77, preceded by Ser-Asn-Ala)
Km (purified protein): 185 µM | Km [2]: 200 µM
